T1: 血清标本中的AFP抗原 (UniProt P02771 19-609)
T1 construct: also called 质控血清AFP; 标准血清中的AFP
T1 sequence (looked up): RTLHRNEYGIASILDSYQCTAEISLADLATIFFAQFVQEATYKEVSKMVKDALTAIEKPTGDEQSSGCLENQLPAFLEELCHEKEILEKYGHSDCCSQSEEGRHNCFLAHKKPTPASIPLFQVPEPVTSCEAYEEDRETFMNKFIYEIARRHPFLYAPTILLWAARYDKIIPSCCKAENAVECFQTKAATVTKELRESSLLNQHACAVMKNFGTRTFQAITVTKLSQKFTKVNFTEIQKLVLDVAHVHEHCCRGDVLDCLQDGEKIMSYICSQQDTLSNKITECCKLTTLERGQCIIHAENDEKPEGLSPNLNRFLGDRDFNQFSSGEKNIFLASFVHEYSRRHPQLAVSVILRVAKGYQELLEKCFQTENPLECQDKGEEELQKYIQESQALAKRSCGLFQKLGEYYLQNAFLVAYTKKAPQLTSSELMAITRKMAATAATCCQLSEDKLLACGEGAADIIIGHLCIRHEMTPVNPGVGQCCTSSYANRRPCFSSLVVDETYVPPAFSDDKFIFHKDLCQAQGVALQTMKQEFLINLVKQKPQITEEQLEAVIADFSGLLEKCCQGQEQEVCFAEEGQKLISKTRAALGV

T2: 重组AFP抗原(爱必信生物，货号Abt-P-208，GenbankID:174) (UniProt P02771 19-609, limits assumed)
T2 construct: Bought recombinant antigen; also called 甲胎蛋白; α-fetoprotein
T2 sequence (looked up): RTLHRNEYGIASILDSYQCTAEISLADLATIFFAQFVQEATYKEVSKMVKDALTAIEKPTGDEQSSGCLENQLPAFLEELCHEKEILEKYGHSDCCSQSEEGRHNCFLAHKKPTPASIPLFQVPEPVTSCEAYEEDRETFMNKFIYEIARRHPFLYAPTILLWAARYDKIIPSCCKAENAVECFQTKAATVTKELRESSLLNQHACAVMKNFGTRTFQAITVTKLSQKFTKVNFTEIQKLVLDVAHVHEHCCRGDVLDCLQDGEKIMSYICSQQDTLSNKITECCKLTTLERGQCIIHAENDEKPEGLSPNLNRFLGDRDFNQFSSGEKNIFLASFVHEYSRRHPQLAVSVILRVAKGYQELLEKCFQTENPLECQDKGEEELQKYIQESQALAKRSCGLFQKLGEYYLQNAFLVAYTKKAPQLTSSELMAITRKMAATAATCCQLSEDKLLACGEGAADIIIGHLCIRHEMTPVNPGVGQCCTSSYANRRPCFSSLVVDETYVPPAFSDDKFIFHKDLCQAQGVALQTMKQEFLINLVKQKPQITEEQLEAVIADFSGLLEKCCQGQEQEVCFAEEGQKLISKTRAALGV

B1: 带有化学发光区序列的纳米抗体1C5-HAP (other)
chain: QVQLQESGGGLVQAGGSLRLSCKASERTFSSYSMAWYRQAPGKKREFVASISWDDERTYYTDSVKGRFTISRPNAKNTVYLQMNSLKPEDTAVYYCAVGGLSDGLGPSYDYWGQGTQVTVSSGGGGSGGGGSGGGGSIIPVEEENPDFWNREAAEALGAAKKLQPAQTAAKNLIIFLGDGMGVSTVTAARILKGQKKDKLGPEIPLAMDRFPYVALSKTYNVDKHVPDSGATATAYLCGVKGNFQTIGLSAAARFNQCNTTRGNEVISVMNRAKKAGKSVGVVTTTRVQHASPAGTYAHTVNRNWYSDADVPASARQEGCQDIATQLISNMDIDVILGGGRKYMFRMGTPDPEYPDDYSQGGTRLDGKNLVQEWLAKRQGARYVWNRTELMQASLDPSVTHLMGLFEPGDMKYEIHRDSTLDPSLMEMTEAALRLLSRNPRGFFLFVEGGRIDHGHHESRAYRALTETIMFDDAIERAGQLTSEEDTLSLVTADHSHVFSFGGYPLRGSSIFGLAPGKARDRKAYTVLLYGNGPGYVLKDGARPDVTESESGSPEYRQQSAVPLDEETHAGEDVAVFARGPQAHLVHGVQEQTFIAHVMAFAACLEPYTACDLAPPAGTTD
notes: Expressed in 293 cells
B2: 纳米抗体1C5 (VHH)
VHH: QVQLQESGGGLVQAGGSLRLSCKASERTFSSYSMAWYRQAPGKKREFVASISWDDERTYYTDSVKGRFTISRPNAKNTVYLQMNSLKPEDTAVYYCAVGGLSDGLGPSYDYWGQGTQVTVSS

Legend:
血清标本中的AFP抗原 = molecular target: T1, 血清标本中的AFP抗原; assay: double-antibody sandwich chemiluminescence assay, detection antibody
[1] = molecular target: T2, 重组AFP抗原(爱必信生物，货号Abt-P-208，GenbankID:174); assay: ELISA additivity test on coated AFP

| Binder | binding result (血清标本中的AFP抗原) | binding result [1] |
| --- | --- | --- |
| B1 | binds |  |
| B2 |  | binds |

From CN113173994A (SHENZHEN INNOVA NANOBODI CO LTD, dated 2021)
